Where a chain is given by its changes, count along the chain named.
How the values were obtained:
[1] = biological target: T1, human PSMA on the surface of prostate cancer cell lines (C42B / C42B-NLR, 22Rv1 / 22Rv1-NLR, PSMA-transfected … (human, UniProt Q04609 1-750)); experiment: flow cytometry on C42B-NLR (PSMA hi) cells, 30 min at 37 degrees, detection with anti-human-Ig-FITC
T1 construct: whole, on cells; also called Prostate Specific Membrane Antigen

[2] = biological target: T1, human PSMA on the surface of prostate …; experiment: flow cytometry on 22Rv1-NLR (PSMA med) cells, 30 min at 37 degrees, detection with anti-human-Ig-FITC
[3] = biological target: T1, human PSMA on the surface of prostate …; experiment: binding to C4-2B (C42B, PSMA^hi) cells, MFI against concentration, least squares fit
[4] = biological target: T2, CD28 antigen used for the affinity determinations (human, UniProt P10747 19-152, limits assumed); experiment: CD28 binding affinity of the scFv arm; method not stated; assigned to XENP40470 by elimination
T2 construct: Octet/BLI is described only for the bivalent mAbs

[5] = biological target: T2, CD28 antigen used for the affinity …; experiment: CD28 binding affinity of the scFv arm, told in a figure legend; method not stated
[6] = biological target: T2, CD28 antigen used for the affinity …; experiment: CD28 binding affinity of the scFv arm; method not stated
[7] = biological target: T2, CD28 antigen used for the affinity …; experiment: Octet (BLI), apparent dissociation constant (KDapp) of the bivalent mAb for CD28
[8] = biological target: T2, CD28 antigen used for the affinity …; experiment: CD28 binding affinity of the scFv arm (monovalent, scFv in 1+1 Fab-scFv-Fc bsAb, FIG. 20); method not stated
[9] = biological target: T3, human CD28 on the surface of human PBMCs / T cells (human, UniProt P10747 19-220); experiment: flow cytometry on human PBMCs, 1 h at 4 C, detected with Alexa Fluor 647 anti-human IgG Fc secondary
T3 construct: whole, on cells; Endogenous CD28 on human PBMCs (flow cytometry) and on T cells (functional assays); also called cell-surface CD28
From the text: Binding of the phage-derived bivalent mAbs to cell-surface CD28 was investigated.

B1: PSMA x CD28 bsAb with A11 PSMA binding domain and 1A7_H1_L1.71 CD28 binding domain (Platform X) (bispecific antibody)
heavy: QVQLQESGGDVVQPGRSLRLSCAASGFSFSGYGLHWVRQAPGRGLEWVTLISYDGSNKYYADSVKGRFTISRDNSKNTLYLQMNSLRAEDTAVYYCAKTTVSDPYYYGMDVWGQGTTVTVSSASTKGPSVFPLAPSSKSTSGGTAALGCLVKDYFPEPVTVSWNSGALTSGVHTFPAVLQSSGLYSLSSVVTVPSSSLGTQTYICNVNHKPSDTKVDKKVEPKSCDKTHTCPPCPAPPVAGPSVFLFPPKPKDTLMISRTPEVTCVVVDVKHEDPEVKFNWYVDGVEVHNAKTKPREEEYNSTYRVVSVLTVLHQDWLNGKEYKCKVSNKALPAPIEKTISKAKGQPREPQVYTLPPSREEMTKNQVSLTCDVSGFYPSDIAVEWESDGQPENNYKTTPPVLDSDGSFFLYSKLTVDKSRWEQGDVFSCSVMHEALHNHYTQKSLSLSPGK
scFv-Fc: not shown
light: SYELTQPPSVSVAPGQTARITCGGNNIGSKSVHWYQQKPGQAPVLVVYDDSDRPSGIPERFSGTNSGNTATLTISRAEAGDEADYYCQVWDSSSDHVVFGGGTKLTVLGQPKAAPSVTLFPPSSEELQANKATLVCLISDFYPGAVTVAWKADSSPVKAGVETTTPSKQSNNKYAASSYLSLTPEQWKSHRSYSCQVTHEGSTVEKTVAPTECS
binding result [1]: binds

B2: XENP38938 PSMA (F07) x CD28 (180nM) (bispecific antibody)
heavy: not shown
scFv-Fc: not shown
light: B1 light with T64S, A77V, S94T
notes: copies: 1 + 1 + 1
binding result [1]: binds

B3: XENP38934 PSMA (F02) x CD28 (180nM) (bispecific antibody)
heavy: EVQLLESGPGLVKPSETLSLTCTVSGGSIISYYWSWIRQPAGKGLEWIGRIYSSGSTNYNPSLKSRVTMSVDTSKNQFSLKLSSVTAADTAVYYCAKVGVWPGAFDIWGQGTMVTVSSASTKGPSVFPLAPSSKSTSGGTAALGCLVKDYFPEPVTVSWNSGALTSGVHTFPAVLQSSGLYSLSSVVTVPSSSLGTQTYICNVNHKPSDTKVDKKVEPKSCDKTHTCPPCPAPPVAGPSVFLFPPKPKDTLMISRTPEVTCVVVDVKHEDPEVKFNWYVDGVEVHNAKTKPREEEYNSTYRVVSVLTVLHQDWLNGKEYKCKVSNKALPAPIEKTISKAKGQPREPQVYTLPPSREEMTKNQVSLTCDVSGFYPSDIAVEWESDGQPENNYKTTPPVLDSDGSFFLYSKLTVDKSRWEQGDVFSCSVMHEALHNHYTQKSLSLSPGK
scFv-Fc: not shown
light: not shown
notes: copies: 1 + 1 + 1
binding result [1]: binds

B4: PSMA x CD28 bsAb with A10 PSMA binding domain and 1A7_H1_L1.71 CD28 binding domain (Platform X) (bispecific antibody)
heavy: not shown
scFv-Fc: not shown
light: SYELMQPPSVSVSPGQTARITCSGDALPKQYAYWYQQKPGQAPVLVIYKDSERPSGIPVRFSGSSSGTTVTLTITGVQAEDEADYYCQSADSSGTYVFGTGTKVTVLGQPKAAPSVTLFPPSSEELQANKATLVCLISDFYPGAVTVAWKADSSPVKAGVETTTPSKQSNNKYAASSYLSLTPEQWKSHRSYSCQVTHEGSTVEKTVAPTECS
EC50 (read off the curve) [2]: ~0.06 µg/mL

B5: XENP39233 PSMA (A10v2) x CD28 (96 nM) (bispecific antibody)
heavy: not shown
scFv-Fc: not shown
light: B4 light
notes: Member of group m19
EC50 (read off the curve) [3]: ~2 nM

B6: C28PB318.002 PSMA (A10v2) x CD28 (96 nM) (bispecific antibody)
scFv-Fc: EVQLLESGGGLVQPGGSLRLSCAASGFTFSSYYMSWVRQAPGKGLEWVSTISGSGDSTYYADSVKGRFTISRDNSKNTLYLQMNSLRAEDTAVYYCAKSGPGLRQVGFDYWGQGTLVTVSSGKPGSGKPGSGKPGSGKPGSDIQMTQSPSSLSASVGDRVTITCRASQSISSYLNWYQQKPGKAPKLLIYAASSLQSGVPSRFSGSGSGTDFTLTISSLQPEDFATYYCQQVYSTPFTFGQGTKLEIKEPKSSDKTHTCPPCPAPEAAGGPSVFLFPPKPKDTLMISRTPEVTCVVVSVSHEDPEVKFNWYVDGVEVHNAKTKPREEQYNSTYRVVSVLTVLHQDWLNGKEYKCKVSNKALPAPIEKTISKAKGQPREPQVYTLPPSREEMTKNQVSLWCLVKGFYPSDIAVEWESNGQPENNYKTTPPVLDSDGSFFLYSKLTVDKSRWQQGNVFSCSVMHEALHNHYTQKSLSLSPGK
heavy: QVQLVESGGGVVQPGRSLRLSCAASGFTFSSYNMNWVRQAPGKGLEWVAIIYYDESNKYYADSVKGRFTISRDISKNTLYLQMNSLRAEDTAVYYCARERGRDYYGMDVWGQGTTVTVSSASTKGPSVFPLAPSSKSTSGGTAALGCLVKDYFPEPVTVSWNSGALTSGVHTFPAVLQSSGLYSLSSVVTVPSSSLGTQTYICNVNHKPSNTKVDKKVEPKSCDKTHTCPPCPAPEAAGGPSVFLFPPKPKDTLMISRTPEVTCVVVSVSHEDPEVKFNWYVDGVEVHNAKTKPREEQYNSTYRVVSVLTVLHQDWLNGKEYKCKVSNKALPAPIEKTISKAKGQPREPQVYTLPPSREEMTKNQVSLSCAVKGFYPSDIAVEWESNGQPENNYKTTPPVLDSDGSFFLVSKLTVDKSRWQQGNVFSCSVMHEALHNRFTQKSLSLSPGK
light: B4 light
EC50 (read off the curve) [3]: ~2 nM

B7: C28PB330.002 PSMA (A10v2) x CD28 (180 nM) (bispecific antibody)
first monomer: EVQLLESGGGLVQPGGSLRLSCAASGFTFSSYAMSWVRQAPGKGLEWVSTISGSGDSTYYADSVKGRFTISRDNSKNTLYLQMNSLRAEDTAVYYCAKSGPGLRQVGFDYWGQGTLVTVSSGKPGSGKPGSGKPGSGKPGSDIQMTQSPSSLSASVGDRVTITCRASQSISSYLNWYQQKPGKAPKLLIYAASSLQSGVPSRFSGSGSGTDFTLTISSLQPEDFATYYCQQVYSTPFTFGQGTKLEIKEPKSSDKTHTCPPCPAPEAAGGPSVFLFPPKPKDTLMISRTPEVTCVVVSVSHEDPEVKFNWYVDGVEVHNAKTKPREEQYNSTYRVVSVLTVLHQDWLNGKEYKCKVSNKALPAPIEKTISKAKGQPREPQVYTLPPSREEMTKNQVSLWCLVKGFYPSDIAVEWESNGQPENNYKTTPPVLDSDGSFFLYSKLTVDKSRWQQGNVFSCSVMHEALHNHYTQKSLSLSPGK
second monomer: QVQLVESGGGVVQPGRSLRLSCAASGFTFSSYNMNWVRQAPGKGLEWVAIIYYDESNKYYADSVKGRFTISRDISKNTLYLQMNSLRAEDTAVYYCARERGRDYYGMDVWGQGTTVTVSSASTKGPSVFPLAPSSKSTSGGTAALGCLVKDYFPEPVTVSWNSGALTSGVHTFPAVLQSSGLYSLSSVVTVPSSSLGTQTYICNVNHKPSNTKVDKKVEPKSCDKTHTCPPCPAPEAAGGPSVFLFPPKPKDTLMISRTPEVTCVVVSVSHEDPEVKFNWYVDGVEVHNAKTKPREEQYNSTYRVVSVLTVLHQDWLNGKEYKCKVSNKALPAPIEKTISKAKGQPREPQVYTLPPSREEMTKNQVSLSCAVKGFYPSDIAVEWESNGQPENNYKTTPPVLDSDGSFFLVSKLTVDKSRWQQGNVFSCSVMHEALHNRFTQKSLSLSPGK
light chain: B4 light
EC50 (read off the curve) [3]: ~3 nM

B8: XENP39234 PSMA (A10v2) x CD28 (37 nM) (bispecific antibody)
heavy: not shown
scFv-Fc: not shown
light: B4 light
notes: Member of group m19
EC50 (read off the curve) [3]: ~3 nM

B9: C28PB294.002 PSMA (A10v2) x CD28 (37 nM) (bispecific antibody)
scFv-Fc: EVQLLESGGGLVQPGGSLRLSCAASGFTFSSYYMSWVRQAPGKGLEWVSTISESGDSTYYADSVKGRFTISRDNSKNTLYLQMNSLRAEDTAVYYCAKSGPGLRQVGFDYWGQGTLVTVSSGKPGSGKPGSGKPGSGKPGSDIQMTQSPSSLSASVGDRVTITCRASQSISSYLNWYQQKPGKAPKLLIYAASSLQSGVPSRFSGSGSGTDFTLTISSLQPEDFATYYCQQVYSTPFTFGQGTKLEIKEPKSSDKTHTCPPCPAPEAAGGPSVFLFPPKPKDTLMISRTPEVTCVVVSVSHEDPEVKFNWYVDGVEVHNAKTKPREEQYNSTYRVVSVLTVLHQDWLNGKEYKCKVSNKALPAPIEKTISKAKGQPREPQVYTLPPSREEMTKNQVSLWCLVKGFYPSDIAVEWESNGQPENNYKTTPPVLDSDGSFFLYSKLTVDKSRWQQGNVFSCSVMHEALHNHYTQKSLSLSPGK
heavy: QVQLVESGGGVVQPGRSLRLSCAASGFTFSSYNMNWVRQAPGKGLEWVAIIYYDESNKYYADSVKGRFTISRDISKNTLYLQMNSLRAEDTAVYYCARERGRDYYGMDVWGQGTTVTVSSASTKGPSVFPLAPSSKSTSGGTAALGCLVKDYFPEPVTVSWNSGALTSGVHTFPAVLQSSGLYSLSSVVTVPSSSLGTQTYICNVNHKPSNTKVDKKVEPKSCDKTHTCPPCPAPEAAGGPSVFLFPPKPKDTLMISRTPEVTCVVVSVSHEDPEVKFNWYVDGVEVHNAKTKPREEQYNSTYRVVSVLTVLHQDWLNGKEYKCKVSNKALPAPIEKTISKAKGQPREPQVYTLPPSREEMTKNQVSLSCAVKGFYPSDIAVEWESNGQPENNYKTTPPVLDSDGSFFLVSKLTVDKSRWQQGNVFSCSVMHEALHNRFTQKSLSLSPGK
light: B4 light
EC50 (read off the curve) [3]: ~3 nM

B10: XENP40470 (bispecific antibody)
heavy: not shown
scFv-Fc: not shown
light: B4 light
notes: Assigned to the 600 nM domain by elimination, because XENP39231 is told to be 1000 nM
Kd [4]: 600 nM

B11: XENP38936 (bispecific antibody)
heavy: not shown
scFv-Fc: not shown
light: B4 light
notes: also called PSMA x CD28 180 nM
Kd [5]: 180 nM
EC50 (read off the curve) [3]: ~2 nM

B12: XENP39231 (bispecific antibody)
heavy: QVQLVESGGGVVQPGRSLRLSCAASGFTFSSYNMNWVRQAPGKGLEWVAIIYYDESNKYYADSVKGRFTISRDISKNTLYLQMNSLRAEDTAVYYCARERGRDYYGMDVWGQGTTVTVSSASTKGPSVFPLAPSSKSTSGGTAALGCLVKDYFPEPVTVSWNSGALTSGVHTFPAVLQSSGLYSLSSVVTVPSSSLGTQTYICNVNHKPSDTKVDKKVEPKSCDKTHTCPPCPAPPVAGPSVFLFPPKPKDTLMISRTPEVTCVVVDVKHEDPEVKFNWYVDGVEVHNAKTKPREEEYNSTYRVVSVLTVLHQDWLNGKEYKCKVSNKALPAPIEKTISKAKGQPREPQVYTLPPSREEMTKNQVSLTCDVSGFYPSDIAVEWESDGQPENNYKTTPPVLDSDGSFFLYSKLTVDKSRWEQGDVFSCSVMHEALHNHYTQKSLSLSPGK
scFv-Fc: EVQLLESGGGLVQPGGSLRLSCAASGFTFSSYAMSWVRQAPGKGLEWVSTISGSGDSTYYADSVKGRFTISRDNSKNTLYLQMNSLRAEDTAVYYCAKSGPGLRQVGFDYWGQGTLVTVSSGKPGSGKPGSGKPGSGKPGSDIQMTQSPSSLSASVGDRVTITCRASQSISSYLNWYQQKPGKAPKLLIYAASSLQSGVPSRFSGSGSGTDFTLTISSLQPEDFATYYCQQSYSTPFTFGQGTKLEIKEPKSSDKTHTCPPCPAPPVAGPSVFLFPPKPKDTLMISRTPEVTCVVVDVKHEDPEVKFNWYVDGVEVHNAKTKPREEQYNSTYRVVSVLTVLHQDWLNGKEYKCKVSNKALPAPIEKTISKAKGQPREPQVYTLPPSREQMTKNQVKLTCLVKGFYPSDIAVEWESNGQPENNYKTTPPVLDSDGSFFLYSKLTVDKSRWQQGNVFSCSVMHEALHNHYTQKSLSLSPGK
light: B4 light
notes: also called PSMA x CD28 1 uM
Kd [6]: 1000 nM

B13: PSMA x CD28 bsAb with D01v2 PSMA binding domain and 1A7_H1_L1.71 CD28 binding domain (Platform X) (bispecific antibody)
heavy: EVQLVESGGDLVQPGGSLRLSCAASGFTFNNYNMNWVRQAPGKGLEWVSHISTSSSNKYYADSVKGRFSISRDIAKNSMYLQMNSLRDEDTAVYYCAREGVGADYGDYYYYGMDVWGQGTTVTVSSASTKGPSVFPLAPSSKSTSGGTAALGCLVKDYFPEPVTVSWNSGALTSGVHTFPAVLQSSGLYSLSSVVTVPSSSLGTQTYICNVNHKPSDTKVDKKVEPKSCDKTHTCPPCPAPPVAGPSVFLFPPKPKDTLMISRTPEVTCVVVDVKHEDPEVKFNWYVDGVEVHNAKTKPREEEYNSTYRVVSVLTVLHQDWLNGKEYKCKVSNKALPAPIEKTISKAKGQPREPQVYTLPPSREEMTKNQVSLTCDVSGFYPSDIAVEWESDGQPENNYKTTPPVLDSDGSFFLYSKLTVDKSRWEQGDVFSCSVMHEALHNHYTQKSLSLSPGK
scFv-Fc: not shown
light: QSVLTQPASVSGSPGQSITISCTGTSSDVGGYNYVSWYQQHPGKAPKLMIYEVSNRPSGVSNRFSGSKSGNTASLTISGLQAEDEADYYCSSYTSSYTYVFGTGTKLTVLGQPKAAPSVTLFPPSSEELQANKATLVCLISDFYPGAVTVAWKADSSPVKAGVETTTPSKQSNNKYAASSYLSLTPEQWKSHRSYSCQVTHEGSTVEKTVAPTECS
notes: D01v2 is D01 with the degradation liabilities removed
binding result [1]: binds

B14: PSMA x CD28 bsAb with D01 PSMA binding domain and 1A7_H1_L1.71 CD28 binding domain (Platform X) (bispecific antibody)
heavy: B13 heavy with E99D
scFv-Fc: not shown
light: B13 light
binding result [1]: binds

B15: XENP28428 (antibody, V domains shown)
VH: EVQLLESGGGLVQPGGSLRLSCAASGFTFSSYAMSWVRQAPGKGLEWVSTISGSGDSTYYADSVKGRFTISRDNSKNTLYLQMNSLRAEDTAVYYCAKSGPGLRQVGFDYWGQGTLVTVSS
VL: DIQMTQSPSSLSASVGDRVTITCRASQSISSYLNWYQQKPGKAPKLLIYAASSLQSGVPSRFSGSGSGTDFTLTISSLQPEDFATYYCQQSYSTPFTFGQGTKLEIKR
notes: Bivalent IgG1 mAb with Fc gamma R ablation variants, made in HEK293E; also called anti-CD28 mAb based on clone 1A7; parental anti-CD28 mAb 1A7; copies: 2 + 2
Kd [7]: 14.5 nM

B16: XENP37902 (bispecific antibody)
heavy: EVQLVQSGAEVKKPGASVKVSCKTSGYTFTEYTIHWVRQAPGQSLEWMGNINPNNGGTTYNQKFQGRVTITVDKSTSTAYMELSSLRSEDTAVYYCAAGWNFDYWGQGTLVTVSSASTKGPSVFPLAPSSKSTSGGTAALGCLVKDYFPEPVTVSWNSGALTSGVHTFPAVLQSSGLYSLSSVVTVPSSSLGTQTYICNVNHKPSDTKVDKKVEPKSCDKTHTCPPCPAPPVAGPSVFLFPPKPKDTLMISRTPEVTCVVVDVKHEDPEVKFNWYVDGVEVHNAKTKPREEEYNSTYRVVSVLTVLHQDWLNGKEYKCKVSNKALPAPIEKTISKAKGQPREPQVYTLPPSREEMTKNQVSLTCDVSGFYPSDIAVEWESDGQPENNYKTTPPVLDSDGSFFLYSKLTVDKSRWEQGDVFSCSVMHEALHNHYTQKSLSLSPGK
scFv-Fc: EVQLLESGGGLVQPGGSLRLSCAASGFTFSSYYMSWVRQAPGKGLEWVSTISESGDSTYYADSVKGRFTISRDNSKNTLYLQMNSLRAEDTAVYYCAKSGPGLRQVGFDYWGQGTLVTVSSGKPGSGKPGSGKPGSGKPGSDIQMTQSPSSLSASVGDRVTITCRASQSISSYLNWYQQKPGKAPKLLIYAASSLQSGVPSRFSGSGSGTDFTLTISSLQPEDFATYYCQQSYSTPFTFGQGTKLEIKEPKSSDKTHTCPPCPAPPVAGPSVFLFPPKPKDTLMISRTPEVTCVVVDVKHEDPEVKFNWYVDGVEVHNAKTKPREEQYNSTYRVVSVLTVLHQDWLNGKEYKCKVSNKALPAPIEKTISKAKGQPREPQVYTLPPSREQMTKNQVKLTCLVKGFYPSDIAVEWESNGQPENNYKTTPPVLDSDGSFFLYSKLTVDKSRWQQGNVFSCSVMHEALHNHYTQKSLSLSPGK
light: DIVMTQSPDSLAVSLGERATLSCRASQDVGTAVDWYQQKPDQSPKLLIYWASTRHTGVPDRFTGSGSGTDFTLTISSLQAEDVAVYFCQQYNSYPLTFGAGTKVEIKRTVAAPSVFIFPPSDEQLKSGTASVVCLLNNFYPREAKVQWKVDNALQSGNSQESVTEQDSKDSTYSLSSTLTLSKADYEKHKVYACEVTHQGLSSPVTKSFNRGEC
notes: 1+1 Fab-scFv-Fc format; also called prototype PSMA x CD28 bsAb; 1A7_H1.14_L1
Kd [8]: 230 nM

B17: XENP37903 (bispecific antibody)
heavy: B16 heavy
scFv-Fc: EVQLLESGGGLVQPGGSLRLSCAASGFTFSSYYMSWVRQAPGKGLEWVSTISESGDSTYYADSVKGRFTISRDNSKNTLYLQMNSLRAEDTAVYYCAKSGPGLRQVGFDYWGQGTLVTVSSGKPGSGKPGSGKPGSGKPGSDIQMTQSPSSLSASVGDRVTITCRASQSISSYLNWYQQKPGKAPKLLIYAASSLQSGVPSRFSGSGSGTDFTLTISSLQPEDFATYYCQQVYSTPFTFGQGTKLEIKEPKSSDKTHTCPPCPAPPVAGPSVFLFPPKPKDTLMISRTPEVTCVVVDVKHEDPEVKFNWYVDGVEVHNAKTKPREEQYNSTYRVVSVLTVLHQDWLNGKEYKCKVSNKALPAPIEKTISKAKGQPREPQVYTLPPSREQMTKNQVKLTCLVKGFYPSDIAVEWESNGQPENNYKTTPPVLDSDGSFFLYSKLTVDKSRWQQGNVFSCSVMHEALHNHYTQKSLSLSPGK
light: B16 light
notes: 1+1 Fab-scFv-Fc format; also called prototype PSMA x CD28 bsAb; 1A7_H1.14_L1.71
Kd [8]: 37 nM

B18: XENP27181 (antibody, V domains shown)
VH: QVQLQESGPGLVKPSETLSLTCAVSGFSLTSYGVHWIRQPPGKGLEWLGVIWPGGGTNFNSALMSRLTISEDTSKNQVSLKLSSVTAADTAVYYCARDRAYGNYLYAMDYWGQGTLVTVSS
VL: DIQMTQSPSSLSASVGDRVTITCRASESVEYYVTSLMQWYQQKPGKAPKLLIYAASNVDSGVPSRFSGSGSGTDFTLTISSLQPEDIATYYCQQSRKVPFTFGGGTKVEIKR
notes: Bivalent anti-CD28 mAb; also called HuTN228; prior art anti-CD28 mAb HuTN228; copies: 2 + 2
binding result [9]: binds

Source: patent US20250388704A1 (Xencor, published 2025)
